In patent publication US20260250402A1 (C O INMAGENE PTE, published 2026):

T1: cynomolgus IL-7Ra expressed on CHOK1-cyno IL-7Ra cells (cynomolgus, UniProt Q38IC7 21-459)
T1 sequence: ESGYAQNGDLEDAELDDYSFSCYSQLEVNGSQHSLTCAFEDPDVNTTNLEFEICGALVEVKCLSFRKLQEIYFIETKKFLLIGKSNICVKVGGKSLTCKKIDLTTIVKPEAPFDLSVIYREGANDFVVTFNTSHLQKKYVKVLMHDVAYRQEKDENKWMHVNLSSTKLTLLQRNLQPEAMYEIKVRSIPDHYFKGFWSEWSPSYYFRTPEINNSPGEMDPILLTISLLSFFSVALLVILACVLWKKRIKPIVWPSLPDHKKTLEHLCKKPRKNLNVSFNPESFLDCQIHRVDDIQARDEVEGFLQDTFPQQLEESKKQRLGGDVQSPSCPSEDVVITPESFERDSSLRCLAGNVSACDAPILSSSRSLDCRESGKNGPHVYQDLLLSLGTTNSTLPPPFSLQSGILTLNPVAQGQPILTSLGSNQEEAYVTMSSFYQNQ

T2: human IL-7Ra expressed on CHOK1-human IL-7Ra cells (human, UniProt P16871 21-459)
T2 construct: also called human IL-7Ra expressed on cell membrane; CD127
T2 sequence: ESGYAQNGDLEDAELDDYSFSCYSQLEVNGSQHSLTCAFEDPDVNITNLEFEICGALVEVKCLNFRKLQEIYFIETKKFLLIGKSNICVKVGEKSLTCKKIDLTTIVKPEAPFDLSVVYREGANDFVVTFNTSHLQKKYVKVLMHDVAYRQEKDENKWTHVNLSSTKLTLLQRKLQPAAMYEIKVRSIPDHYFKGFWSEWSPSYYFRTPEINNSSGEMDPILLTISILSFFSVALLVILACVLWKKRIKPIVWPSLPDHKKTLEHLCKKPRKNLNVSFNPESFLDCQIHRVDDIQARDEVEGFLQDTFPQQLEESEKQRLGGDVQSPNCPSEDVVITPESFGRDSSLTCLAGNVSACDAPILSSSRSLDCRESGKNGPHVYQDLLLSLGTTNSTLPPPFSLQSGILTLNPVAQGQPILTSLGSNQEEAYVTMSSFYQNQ


How the values were obtained:
[1] = target: T1, cynomolgus IL-7Ra expressed on …; assay: flow cytometry, CHOK1-cyno IL-7Ra cells
[2] = target: T2, human IL-7Ra expressed on CHOK1-human …; assay: flow cytometry, CHOK1-human IL-7Ra cells

Binder	EC50 [1] [µg/mL]	Top (MFI) [1] [MFI]	EC50 [2] [µg/mL]	Top (MFI) [2] [MFI]
HuAb001 (antibody, V domains shown, Humanized version of cmAb011; also called humanized VL1 / humanized VH1) VH: QVQLVQSGAEVKKPGASVKVSCKASGYRFTDYELHWVRQAPGQGLEWMGGIDPKTGGTAYNQKFKGRVTMTRDTSTSTVYMELSSLRSEDTAVYYCARSGGRWYFDVWGQGTTVTVSS VL: DIVLTQSPASLAVSPGQRATITCRTSESVSIHLLHLMHWYQQKPGQPPKLLIYGASNLESGVPARFSGSGSGTDFTLTINPVEAEDTANYYCQQSIKDPYTFGGGTKVEIK	0.167	16000	0.17	22300
HuAb020 (antibody, V domains shown, Humanized version of cmAb011; also called humanized VL4 / humanized VH5) VH: QVQLVQSGAEVKKPGASVKVSCKASGYRFTDYELHWVKQAPGQGLEWIGGIDPKTGGTAYNQKFKGKVTLTSDRSTSTVYMELSSLRSEDTAVYYCARSGGRWYFDVWGQGTTVTVSS VL: DIVLTQSPDSLAVSLGERATINCRTSESVSIHLLHLMHWYQQKPGQPPKLLIYGASNLESGVPDRFSGSGSETDFTLTISSLQAEDVAVYYCQQSIKDPYTFGGGTKVEIK	0.124	17600	0.115	22500
HuAb011 (antibody, V domains shown, Humanized version of cmAb011; also called humanized VL3 / humanized VH3) VH: QVQLVQSGAEVKKPGASVKVSCKASGYRFTDYELHWVKQAPGQGLEWIGGIDPKTGGTAYNQKFKGRVTMTSDRSTSTVYMELSSLRSEDTAVYYCARSGGRWYFDVWGQGTTVTVSS VL: DIVMTQSPDSLAVSLGERATINCRTSESVSIHLLHLMHWYQQKPGQPPKLLIYGASNLESGVPDRFSGSGSGTDFTLTISSLQAEDVAVYYCQQSIKDPYTFGGGTKVEIK	0.241	17700	0.256	20500
HuAb016 (antibody, V domains shown, Humanized version of cmAb011; also called humanized VL4 / humanized VH4) VH: QVQLVQSGAEVKKPGASVKVSCKASGYRFTDYELHWVRQAPGQGLEWMGGIDPKTGGTAYNQKFKGKVTLTSDRSTSTVYMELSSLRSEDTAVYYCARSGGRWYFDVWGQGTTVTVSS VL: DIVLTQSPDSLAVSLGERATINCRTSESVSIHLLHLMHWYQQKPGQPPKLLIYGASNLESGVPDRFSGSGSETDFTLTISSLQAEDVAVYYCQQSIKDPYTFGGGTKVEIK	0.128	17100	0.113	23700
HuAb019 (antibody, V domains shown, Humanized version of cmAb011; also called humanized VL3 / humanized VH5) VH: QVQLVQSGAEVKKPGASVKVSCKASGYRFTDYELHWVKQAPGQGLEWIGGIDPKTGGTAYNQKFKGKVTLTSDRSTSTVYMELSSLRSEDTAVYYCARSGGRWYFDVWGQGTTVTVSS VL: DIVMTQSPDSLAVSLGERATINCRTSESVSIHLLHLMHWYQQKPGQPPKLLIYGASNLESGVPDRFSGSGSGTDFTLTISSLQAEDVAVYYCQQSIKDPYTFGGGTKVEIK	0.687	18000	0.536	22800
HuAb015 (antibody, V domains shown, Humanized version of cmAb011; also called humanized VL3 / humanized VH4) VH: QVQLVQSGAEVKKPGASVKVSCKASGYRFTDYELHWVRQAPGQGLEWMGGIDPKTGGTAYNQKFKGKVTLTSDRSTSTVYMELSSLRSEDTAVYYCARSGGRWYFDVWGQGTTVTVSS VL: DIVMTQSPDSLAVSLGERATINCRTSESVSIHLLHLMHWYQQKPGQPPKLLIYGASNLESGVPDRFSGSGSGTDFTLTISSLQAEDVAVYYCQQSIKDPYTFGGGTKVEIK	0.189	17400	0.158	24100
HuAb012 (antibody, V domains shown, Humanized version of cmAb011; also called humanized VL4 / humanized VH3) VH: QVQLVQSGAEVKKPGASVKVSCKASGYRFTDYELHWVKQAPGQGLEWIGGIDPKTGGTAYNQKFKGRVTMTSDRSTSTVYMELSSLRSEDTAVYYCARSGGRWYFDVWGQGTTVTVSS VL: DIVLTQSPDSLAVSLGERATINCRTSESVSIHLLHLMHWYQQKPGQPPKLLIYGASNLESGVPDRFSGSGSETDFTLTISSLQAEDVAVYYCQQSIKDPYTFGGGTKVEIK	0.165	17000	0.159	20300
HuAb010 (antibody, V domains shown, Humanized version of cmAb011; also called humanized VL2 / humanized VH3) VH: QVQLVQSGAEVKKPGASVKVSCKASGYRFTDYELHWVKQAPGQGLEWIGGIDPKTGGTAYNQKFKGRVTMTSDRSTSTVYMELSSLRSEDTAVYYCARSGGRWYFDVWGQGTTVTVSS VL: DIVLTQSPASLAVSPGQRATITCRTSESVSIHLLHLMHWYQQKPGQPPKLLIYGASNLESGVPARFSGSGSETDFTLTINPVEAEDTANYYCQQSIKDPYTFGGGTKVEIK	0.175	17500	0.152	20600
HuAb006 (antibody, V domains shown, Humanized version of cmAb011; also called humanized VL2 / humanized VH2) VH: QVQLVQSGAEVKKPGASVKVSCKASGYRFTDYELHWVRQAPGQGLEWMGGIDPKTGGTAYNQKFKGRVTMTSDRSTSTVYMELSSLRSEDTAVYYCARSGGRWYFDVWGQGTTVTVSS VL: DIVLTQSPASLAVSPGQRATITCRTSESVSIHLLHLMHWYQQKPGQPPKLLIYGASNLESGVPARFSGSGSETDFTLTINPVEAEDTANYYCQQSIKDPYTFGGGTKVEIK	0.191	16700	0.177	21600
HuAb007 (antibody, V domains shown, Humanized version of cmAb011; also called humanized VL3 / humanized VH2) VH: QVQLVQSGAEVKKPGASVKVSCKASGYRFTDYELHWVRQAPGQGLEWMGGIDPKTGGTAYNQKFKGRVTMTSDRSTSTVYMELSSLRSEDTAVYYCARSGGRWYFDVWGQGTTVTVSS VL: DIVMTQSPDSLAVSLGERATINCRTSESVSIHLLHLMHWYQQKPGQPPKLLIYGASNLESGVPDRFSGSGSGTDFTLTISSLQAEDVAVYYCQQSIKDPYTFGGGTKVEIK	0.244	17100	0.209	21100
HuAb002 (antibody, V domains shown, Humanized version of cmAb011; also called humanized VL2 / humanized VH1) VH: QVQLVQSGAEVKKPGASVKVSCKASGYRFTDYELHWVRQAPGQGLEWMGGIDPKTGGTAYNQKFKGRVTMTRDTSTSTVYMELSSLRSEDTAVYYCARSGGRWYFDVWGQGTTVTVSS VL: DIVLTQSPASLAVSPGQRATITCRTSESVSIHLLHLMHWYQQKPGQPPKLLIYGASNLESGVPARFSGSGSETDFTLTINPVEAEDTANYYCQQSIKDPYTFGGGTKVEIK	0.126	15900	0.115	22600
HuAb017 (antibody, V domains shown, Humanized version of cmAb011; also called humanized VL1 / humanized VH5) VH: QVQLVQSGAEVKKPGASVKVSCKASGYRFTDYELHWVKQAPGQGLEWIGGIDPKTGGTAYNQKFKGKVTLTSDRSTSTVYMELSSLRSEDTAVYYCARSGGRWYFDVWGQGTTVTVSS VL: DIVLTQSPASLAVSPGQRATITCRTSESVSIHLLHLMHWYQQKPGQPPKLLIYGASNLESGVPARFSGSGSGTDFTLTINPVEAEDTANYYCQQSIKDPYTFGGGTKVEIK	0.0891	17700	0.0778	24600
HuAb014 (antibody, V domains shown, Humanized version of cmAb011; also called humanized VL2 / humanized VH4) VH: QVQLVQSGAEVKKPGASVKVSCKASGYRFTDYELHWVRQAPGQGLEWMGGIDPKTGGTAYNQKFKGKVTLTSDRSTSTVYMELSSLRSEDTAVYYCARSGGRWYFDVWGQGTTVTVSS VL: DIVLTQSPASLAVSPGQRATITCRTSESVSIHLLHLMHWYQQKPGQPPKLLIYGASNLESGVPARFSGSGSETDFTLTINPVEAEDTANYYCQQSIKDPYTFGGGTKVEIK	0.0534	16700	0.0529	23900
HuAb018 (antibody, V domains shown, Humanized version of cmAb011; also called humanized VL2 / humanized VH5) VH: QVQLVQSGAEVKKPGASVKVSCKASGYRFTDYELHWVKQAPGQGLEWIGGIDPKTGGTAYNQKFKGKVTLTSDRSTSTVYMELSSLRSEDTAVYYCARSGGRWYFDVWGQGTTVTVSS VL: DIVLTQSPASLAVSPGQRATITCRTSESVSIHLLHLMHWYQQKPGQPPKLLIYGASNLESGVPARFSGSGSETDFTLTINPVEAEDTANYYCQQSIKDPYTFGGGTKVEIK	0.0988	18400	0.105	24100
